Source: patent publication US20230074615A1
Positions count from the first letter of the chain named.

B1: anti-MMP9 Fab L13 (Fab, V domains shown)
VH: EVQLVESGGGLVQPGGSLRLSCAASGFNISSSYIHWVRQAPGKGLEWVASISSSSGYTSYADSVKGRFTISADTSKNTAYLQMNSLRAEDTAVYYCARKYMVFGTRMGWVEHTDFAGQGYYAMDYWGQGTLVTVSS
VL: DIQMTQSPSSLSASVGDRVTITCRASQSVSSAVAWYQQKPGKAPKLLIYSASSLYSGVPSRFSGSRSGTDFTLTISSLQPEDFATYYCQQYAALITFGQGTKVEIKR
B2: anti-MMP9 IgG H3 (antibody, V domains shown)
VH: EVQLVESGGGLVQPGGSLRLSCAASGFNIYSSSMHWVRQAPGKGLEWVAYIYSSYGYTYYADSVKGRFTISADTSKNTAYLQMNSLRAEDTAVYYCARRFEPGLLKRNKRWISYTLCEAGYGMDYWGQGTLVTVSS
VL: B1 VL with Y91A, A92S, A93H
B3: anti-MMP9 Fab H25 (Fab, V domains shown)
VH: EVQLVESGGGLVQPGGSLRLSCAASGFNIYSSSMHWVRQAPGKGLEWVASIYSYYGYTYYADSVKGRFTISADTSKNTAYLQMNSLRAEDTAVYYCARCKLYTSYMIPVGSDSVNRCMSSYGMDYWGQGTLVTVSS
VL: DIQMTQSPSSLSASVGDRVTITCRASQSVSSAVAWYQQKPGKAPKLLIYSASSLYSGVPSRFSGSRSGTDFTLTISSLQPEDFATYYCQQGGGASLITFGQGTKVEIKR
B4: anti-MMP9 IgG L13 (antibody, V domains shown)
VH: B1 VH
VL: B1 VL
B5: anti-MMP9 Fab H3 (Fab, V domains shown)
VH: B2 VH
VL: B1 VL with Y91A, A92S, A93H

Experiments:
[1] = target: catalytic domain of human MMP-9 (cdMMP-9) (human) (UniProt P14780); assay: FRET peptide substrate inhibition assay, K1=IC50/(S/Km+1)
Chain of UniProt P14780 (P14780 other isoform, or with tags, fused parts or gaps limits assumed): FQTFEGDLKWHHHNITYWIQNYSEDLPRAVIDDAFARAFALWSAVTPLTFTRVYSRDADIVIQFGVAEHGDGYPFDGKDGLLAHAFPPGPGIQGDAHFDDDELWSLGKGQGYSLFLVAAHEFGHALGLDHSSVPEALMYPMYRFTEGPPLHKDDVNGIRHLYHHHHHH

[2] = target: catalytic domain of human MMP-9 (cdMMP-9) (human) (UniProt P14780)
[3] = target: catalytic domain of human MMP-9 (cdMMP-9) (human) (UniProt P14780); assay: cell-based or functional assay
[4] = target: catalytic domain of human MMP-9 (cdMMP-9) (human) (UniProt P14780); assay: inhibition of cdMMP-9 proteolytic activity, FRET peptide substrate
[5] = target: catalytic domain of human MMP-9 (cdMMP-9) (human) (UniProt P14780); assay: biolayer interferometry, biotinylated cdMMP-9 on streptavidin biosensors, Fab in solution
[6] = target: catalytic domain of human MMP-9 (cdMMP-9) (human) (UniProt P14780); assay: biolayer interferometry, biotinylated protease on streptavidin sensor, Fab in solution
[7] = target: catalytic domain of human MMP-9 (cdMMP-9) (human) (UniProt P14780); assay: biolayer interferometry, IgG on protein A sensor, protease in solution

Binder	Ki [1] [nM]	Km of cdMMP-9 on FRET peptide substrate at 63 nM Fab L13 (without Fab: 1.3) [2] [µM]	Km of cdMMP-9 on FRET peptide substrate at 125 nM Fab L13 (without Fab: 1.3) [2] [µM]	Km of cdMMP-9 on FRET peptide substrate at 250 nM Fab L13 (without Fab: 1.3) [2] [µM]	Vmax of cdMMP-9 on FRET peptide substrate at 63 nM Fab L13 (without Fab: 1.3) [2]	Vmax of cdMMP-9 on FRET peptide substrate at 125 nM Fab L13 (without Fab: 1.3) [2]	Vmax of cdMMP-9 on FRET peptide substrate at 250 nM Fab L13 (without Fab: 1.3) [2]	degradation of type I collagen by cdMMP-9 (SDS-PAGE) [3] [%]	IC50 [4] [nM]	koff [5] [s⁻¹]	kon [5] [M⁻¹ s⁻¹]	Kd [6] [nM]	Kd [7] [nM]
B1	150	3.3	4.6	5.1	0.7 ΔRFU/s	0.7 ΔRFU/s	0.6 ΔRFU/s	4	260	0.0044	83000	120	
B2	51								92				71
B3	290								520	0.031	69000	450	
B4	110								200				53
B5	66									0.0048	49000	98	
